Laboratory results as given in patent US20240141042A1 (INNATE PHARMA, published 2024).
Changes are numbered by the printed parent chain. Read-outs that look alike come from different tables or passages of the source.

Legend:
[1] = target: T1, human NKp46 expressed at the cell surface (human, UniProt O76036 22-304); assay: flow cytometry on HEK293T cells transfected with wild-type NKp46, antibody titrated 0.001-1 ug/ml
T1 construct: Wild-type NKp46 on cells (transfected cell lines or NK cells); also called cell line expressing the human NKp46 construct; NKp46 cell line

NKp46 mutant 19 = target: T2, NKp46 mutant 19 (human, UniProt O76036 22-304); assay: flow cytometry on HEK293T cells transfected with NKp46 mutant 19 (I135A, S136A), antibody titrated 0.001-1 ug/ml
T2 construct: Expressed in transfected HEK293T cells
T2 chain: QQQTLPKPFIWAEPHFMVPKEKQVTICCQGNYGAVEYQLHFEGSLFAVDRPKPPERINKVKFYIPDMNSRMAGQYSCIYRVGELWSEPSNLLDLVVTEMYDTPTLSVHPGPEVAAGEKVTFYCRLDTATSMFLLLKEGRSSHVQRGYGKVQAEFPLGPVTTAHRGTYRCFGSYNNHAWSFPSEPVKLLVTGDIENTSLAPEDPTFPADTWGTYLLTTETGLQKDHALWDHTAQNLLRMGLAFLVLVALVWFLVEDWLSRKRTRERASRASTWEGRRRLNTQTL

NKp46 mutant Supp6 = target: T3, NKp46 mutant Supp6 (human, UniProt O76036 22-304); assay: flow cytometry on HEK293T cells transfected with NKp46 mutant Supp6 (E104A, L105A; printed 'Mutant S6'), antibody titrated 0.001-1 ug/ml
T3 construct: Expressed in transfected HEK293T cells; also called supplementary mutant Supp6
T3 chain: T2 chain with E83A, L84A, A114I, A115S

[2] = target: T1, human NKp46 expressed at the cell …; assay: flow cytometry on HEK293T cells transfected with wild-type NKp46, antibody titrated 0.001-1 ug/ml; remark: listed apart in the source
NKp46 mutant 6 = target: T4, NKp46 mutant 6 (human, UniProt O76036 22-304); assay: flow cytometry on HEK293T cells transfected with NKp46 mutant 6 (R101A, V102A), antibody titrated 0.001-1 ug/ml
T4 construct: Expressed in transfected HEK293T cells
T4 chain: T2 chain with R80A, V81A, A114I, A115S

NKp46 mutant Supp8 = target: T5, NKp46 mutant Supp8 (human, UniProt O76036 22-304); assay: flow cytometry on HEK293T cells transfected with NKp46 mutant Supp8 (P132A, E133A; printed 'Mutant S8'), antibody titrated 0.001-1 ug/ml
T5 construct: Expressed in transfected HEK293T cells; also called supplementary mutant Supp8
T5 chain: T2 chain with P111A, E112A, A114I, A115S

NKp46 mutant Supp7 = target: T6, NKp46 mutant Supp7 (human, UniProt O76036 22-304); assay: flow cytometry on HEK293T cells transfected with NKp46 mutant Supp7 (Y121A, Y194A; printed 'Mutant S7'), antibody titrated 0.001-1 ug/ml
T6 construct: Expressed in transfected HEK293T cells; also called supplementary mutant Supp7
T6 chain: T2 chain with Y100A, A114I, A115S, Y173A

NKp46 mutant 2 = target: T7, NKp46 mutant 2 (human, UniProt O76036 22-304); assay: flow cytometry on HEK293T cells transfected with NKp46 mutant 2 (K41S, E42A, E119A), antibody titrated 0.001-1 ug/ml
T7 construct: Expressed in transfected HEK293T cells
T7 chain: T2 chain with K20S, E21A, E98A, A114I, A115S
Description: All the anti-NKp46 antibodies were tested for their binding to each mutant by flow cytometry. A first experiment was performed to determine antibodies that lose their binding to one or several mutants at one concentration (10 μg/ml).

[3] = target: T8, Human NKp46 recombinant proteins (human, UniProt O76036 22-258); assay: SPR, bispecific captured on Protein-A chip
T8 construct: also called recombinant human NKp46 proteins
Description: SPR measurements were performed on a Biacore T100 apparatus (Biacore GE Healthcare) at 25° C. In all Biacore experiments HBS-EP+(Biacore GE Healthcare) and NaOH 10 mM served as running buffer and regeneration buffer respectively. Sensorgrams were analyzed with Biacore T100 Evaluation software. Protein-A was purchase from (GE Healthcare). Human NKp46 recombinant proteins were cloned, produced and purified at Innate Pharma.
Protein-A proteins were immobilized covalently to carboxyl groups in the dextran layer on a Sensor Chip CM5. The chip surface was activated with EDC/NHS (N-ethyl-N′-(3-dimethylaminopropyl) carbodiimidehydrochloride and N-hydroxysuccinimide (Biacore GE Healthcare)). Protein-A was diluted to 10 μg/ml in coupling buffer (10 mM acetate, pH 5.6) and injected until the appropriate immobilization level was reached (i.e. 2000 RU). Deactivation of the remaining activated groups was performed using 100 mM ethanolamine pH 8 (Biacore GE Healthcare).

Measured: binding result

B1: NKp46-4 (antibody, V domains shown)
VH: QVQLQQSAVELARPGASVKMSCKASGYTFTSFTMHWVKQRPGQGLEWIGYINPSSGYTEYNQKFKDKTTLTADKSSSTAYMQLDSLTSDDSAVYYCVRGSSRGFDYWGQGTLVTVSA
VL: DIQMIQSPASLSVSVGETVTITCRASENIYSNLAWFQQKQGKSPQLLVYAATNLADGVPSRFSGSGSGTQYSLKINSLQSEDFGIYYCQHFWGTPRTFGGGTKLEIK
notes: also called Antibody NKp46-4
binds: [1] | NKp46 mutant 19

B2: NKp46-6 (antibody, V domains shown)
VH: QVQLQQPGSVLVRPGASVKLSCKASGYTFTSSWMHWAKQRPGQGLEWIGHIHPNSGISNYNEKFKGKATLTVDTSSSTAYVDLSSLTSEDSAVYYCARGGRFDDWGAGTTVTVSS
VL: DIVMTQSPATLSVTPGDRVSLSCRASQSISDYLHWYQQKSHESPRLLIKYASQSISGIPSRFSGSGSGSDFTLSINSVEPEDVGVYYCQNGHSFLMYTFGGGTKLEIK
notes: not in the list MOLECULES as an antibody; also called antibody NKp46-6; monoclonal antibody NKp46-6
binds: NKp46 mutant Supp6 | [2] | NKp46 mutant 6 | NKp46 mutant Supp8 | NKp46 mutant Supp7 | NKp46 mutant 2 | NKp46 mutant 19

B3: CD19-F2-NKp46-3 (bispecific antibody)
chain 1: DIQLTQSPASLAVSLGQRATISCKASQSVDYDGDSYLNWYQQIPGQPPKLLIYDASNLVSGIPPRFSGSGSGTDFTLNIHPVEKVDAATYHCQQSTEDPWTFGGGTKLEIKGGGGSGGGGSGGGGSQVQLQQSGAELVRPGSSVKISCKASGYAFSSYWMNWVKQRPGQGLEWIGQIWPGDGDTNYNGKFKGKATLTADESSSTAYMQLSSLASEDSAVYFCARRETTTVGRYYYAMDYWGQGTTVTVSSGGGSSAPELLGGPSVFLFPPKPKDTLMISRTPEVTCVVVDVSHEDPEVKFNWYVDGVEVHNAKTKPREEQYNSTYRVVSVLTVLHQDWLNGKEYKCKVSNKALPAPIEKTISKAKGQPREPQVYTKPPSREEMTKNQVSLSCLVKGFYPSDIAVEWESNGQPENNYKTTVPVLDSDGSFRLASYLTVDKSRWQQGNVFSCSVMHEALHNHYTQKSLSLSPGSTGSEVQLQQSGPELVKPGASVKISCKTSGYTFTEYTMHWVKQSHGKSLEWIGGISPNIGGTSYNQKFKGKATLTVDKSSSTAYMELRSLTSEDSAVYYCARRGGSFDYWGQGTTLTVSSASTKGPSVFPLAPSSKSTSGGTAALGCLVKDYFPEPVTVSWNSGALTSGVHTFPAVLQSSGLYSLSSVVTVPSSSLGTQTYICNVNHKPSNTKVDKRVEPKSCDKTH
chain 2: DIVMTQSPATLSVTPGDRVSLSCRASQSISDYLHWYQQKSHESPRLLIKYASQSISGIPSRFSGSGSGSDFTLSINSVEPEDVGVYYCQNGHSFPLTFGAGTKLELKRTVAAPSVFIFPPSDEQLKSGTASVVCLLNNFYPREAKVQWKVDNALQSGNSQESVTEQDSKDSTYSLSSTLTLSKADYEKHKVYACEVTHQGLSSPVTKSFNRGEC
notes: Heterodimer with monomeric Fc; also called bi-specific antibody NKp46-3 (F2)
binds: [3]
